US20230087785A1, “Leucine-Rich Repeat Kinase 2 Allosteric Modulators” (VIB VZW, priority 2020, published 2023)
Values belong to the binder of their own block, whether it stands above or below them.

Columns and labels:
[1] = biological target: T1, Full-length human Leucine-rich repeat kinase 2 (LRRK2), N-terminal Strep/Flag (SF) tagged (human, UniProt Q5S007 1-2527); assay: cell-based or functional assay
[2] = biological target: T1, Full-length human Leucine-rich repeat …; assay: MST; LRRK2 titrated to m-TAMRA-labelled Nb, 500 µM GDP
Protocol: (§1) Microscale thermophoresis (MST) experiments were performed for determining equilibrium binding affinities (KD) of Nbs binding to FL-LRRK2. Therefore, Nb were site-specifically labelled at their C-terminus with m-TAMRA, using Sortase-mediated peptide exchange. The Nbs were recloned into a pHEN29 vector which is subsequently used to express and purify the Nbs with a C-terminal LPETGG-His₆-EPEA tag. Exchange of the latter peptide with an m-TAMRA-labeled GGGYK peptide (GenicBio, Shanghai, China) was performed using Sortase, and unlabeled Nb and unincorporated peptide were removed using a Ni-NTA and SEC purification step, respectively. […] After incubation at 4° C. for 30 mins, samples were loaded in capillaries and measurements were performed at 25° C. using 50-70% LED power and 80% laser intensity (laser on-time: 30 s, laser off-time: 5 s). All experiments were performed in triplicate.

[3] = biological target: T2, LRRK2 Roc domain construct (human, UniProt Q5S007 1329-1520); assay: ELISA, antigen coated on the plate, purified Nb detected via its EPEA tag
T2 construct: not shown: N-terminal His6-tag of pET-28a
T2 sequence: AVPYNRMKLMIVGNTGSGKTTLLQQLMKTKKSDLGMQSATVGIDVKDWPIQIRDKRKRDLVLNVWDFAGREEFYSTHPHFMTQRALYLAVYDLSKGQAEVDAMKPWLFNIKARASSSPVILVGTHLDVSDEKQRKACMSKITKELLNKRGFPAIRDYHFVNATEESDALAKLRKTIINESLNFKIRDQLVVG
Source text: (§2) We recombinantly expressed and purified the RocCOR, Roc, COR-B and kinase-WD40 (K-WD40) domain constructs of LRRK2 (FIG. 7). Subsequently, we performed an ELISA in which all these domain constructs were coated in parallel next to each other in the same ELISA plate, and where we subsequently detected binding of the 42 purified Nbs. […] To enrich in Nbs directed against the Roc domain we specifically included a selection step with either Roc-GTPγS or Roc-GDP.

[4] = biological target: T3, LRRK2 kinase-WD40 domain construct (human, UniProt Q5S007 1876-2527); assay: as above
T3 construct: also called K-WD40; not shown: N-terminal His-tag (pFastBac)
T3 sequence: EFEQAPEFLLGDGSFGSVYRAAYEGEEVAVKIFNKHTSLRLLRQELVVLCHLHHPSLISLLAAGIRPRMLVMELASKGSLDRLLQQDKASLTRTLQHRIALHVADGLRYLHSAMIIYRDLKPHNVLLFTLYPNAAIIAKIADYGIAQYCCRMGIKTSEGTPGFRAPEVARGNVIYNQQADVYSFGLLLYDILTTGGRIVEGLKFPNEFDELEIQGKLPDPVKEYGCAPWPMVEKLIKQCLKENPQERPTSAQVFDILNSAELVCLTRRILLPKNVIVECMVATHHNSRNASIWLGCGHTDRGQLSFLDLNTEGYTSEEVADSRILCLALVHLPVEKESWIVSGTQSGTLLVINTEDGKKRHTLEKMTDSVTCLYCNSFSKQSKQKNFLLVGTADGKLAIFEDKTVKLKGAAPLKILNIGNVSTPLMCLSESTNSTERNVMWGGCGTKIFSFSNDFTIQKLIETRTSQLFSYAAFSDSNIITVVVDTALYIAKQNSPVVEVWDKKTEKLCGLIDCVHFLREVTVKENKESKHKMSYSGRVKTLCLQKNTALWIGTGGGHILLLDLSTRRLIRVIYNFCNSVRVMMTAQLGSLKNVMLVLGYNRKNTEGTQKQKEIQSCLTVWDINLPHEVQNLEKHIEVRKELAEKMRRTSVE
Source text: as §2

[5] = biological target: T1, Full-length human Leucine-rich repeat …; assay: BLI; Nb on LRRK2 trapped on streptavidin sensor via biotinylated Nb40; steady-state fit
Protocol: (§3) To determine the binding affinity (dissociation constant KD) of the ten Nbs for LRRK2, two methods were used in parallel: microscale thermophoresis (MST) and bio-layer interferometry (BLI). For the MST experiment, we site-specifically labeled the ten Nbs with a m-TAM RA fluorophore at its C-terminus, using sortase-mediated coupling, and then titrated increasing amounts of full-length LRRK2 to these Nbs (FIGS. 13A-13E).
(§4) Biolayer interferometry (BLI) measurements were performed using an Octet Red96 (Forte Bio, Inc.) system in a buffer containing 50 mM HEPES pH 8.0, 150 mM NaCl, 10 mM MgCl₂, 5% glycerol, 0.1% BSA, 0.05% Tween, at 25° C. and with shaking speed 1000 rpm. […] The biotinylated Nbs were first loaded on pre-equilibrated SA biosensors at a concentration of 5 μg/mL. This Nb-loaded sensor was then used to trap FL-LRRK2 from a 50 nM LRRK2 solution. […] All experiments were performed in triplicate.

[6] = biological target: T1, Full-length human Leucine-rich repeat …; assay: ELISA titration on coated LRRK2, Nb detected via its C-terminal EPEA tag, A405 read at 0.5 h
Protocol: (§5) LRRK2 was coated in the wells of the ELISA plate and the ELISA signal for a dilution series of the respective Nbs (detected via their C-terminal EPEA-tag) is plotted in function of the Nb concentration. […] A “no antigen control”, where no LRRK2 was coated on the bottom of the well, is also included.
(§6) Detection of Nb binding was performed using the C-terminal EPEA tag of the Nbs as described before, resulting in a dose response titration curve reflecting an apparent affinity of the Nbs. […] A “no antigen control”, where no LRRK2 was coated on the bottom of the well, was also included.

[7] = biological target: T1, Full-length human Leucine-rich repeat …; assay: kinase kinetics (PhosphoSens, varied ATP), global fit to mixed inhibition; ATP-bound LRRK2; enzyme kinetics, mixed inhibition fit; ATP-bound LRRK2
Protocol: (§7) Full Michaelis-Menten curves (relative velocity versus [ATP]) in presence of different Nb concentrations were collected at 30° C. in a buffer consisting of 50 mM HEPES pH 7.5, 0.1% Brij-35, 50 mM NaCl, 10 mM MgCl₂ and […], using a fixed concentration of AQT0615 (10 μM) and varying concentrations of ATP. The LRRK2 concentration was chosen such that initial rates (linear fluorescence versus time curves) were obtained, and LRRK2, ATP and the Nbs were preincubated at 4° C. for 30 min prior to starting the reaction by adding the peptide substrate. The Michaelis-Menten curves for the different Nb concentrations were globally fit on a mixed-inhibition model using GraphPad Prism, according to the equation: […]

[8] = biological target: T1, Full-length human Leucine-rich repeat …; assay: kinase kinetics (PhosphoSens, varied ATP), global fit to mixed inhibition; affinity for apo-LRRK2; enzyme kinetics, mixed inhibition fit; apo-LRRK2
Protocol: as §7

[9] = biological target: T4, LRRK2 RocCOR domain construct (human, UniProt Q5S007 1334-1840); assay: ELISA, antigen coated on the plate, purified Nb detected via its EPEA tag
T4 construct: A second construct (residues 1293-1840, N-terminal His6-MBP) was used in certain screening experiments; not shown: N-terminal Twin-Strep-tag; C-terminal His10-tag
T4 sequence: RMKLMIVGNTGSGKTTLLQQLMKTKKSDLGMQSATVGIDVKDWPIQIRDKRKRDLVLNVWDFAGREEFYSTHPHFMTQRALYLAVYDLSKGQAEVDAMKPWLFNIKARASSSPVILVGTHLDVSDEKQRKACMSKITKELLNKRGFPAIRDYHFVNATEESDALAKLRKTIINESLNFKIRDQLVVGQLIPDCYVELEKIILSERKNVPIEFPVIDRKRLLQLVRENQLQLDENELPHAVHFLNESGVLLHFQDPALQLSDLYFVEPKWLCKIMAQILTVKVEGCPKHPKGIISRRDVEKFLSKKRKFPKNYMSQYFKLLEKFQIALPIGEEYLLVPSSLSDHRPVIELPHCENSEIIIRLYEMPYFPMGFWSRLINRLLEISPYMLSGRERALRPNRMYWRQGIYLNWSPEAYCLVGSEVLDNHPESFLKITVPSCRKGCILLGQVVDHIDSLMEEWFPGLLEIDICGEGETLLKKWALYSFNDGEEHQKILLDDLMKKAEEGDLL
Source text: as §2

[10] = biological target: T5, LRRK2 COR-B construct (C-terminal part of the COR domain), His6-MBP tagged (human, UniProt Q5S007 1672-1840); assay: as above
T5 construct: also called (MBP-)COR-B; not shown: N-terminal His6-MBP-tag of pDEST-566
Source text: as §2

[11] = biological target: T1, Full-length human Leucine-rich repeat …; assay: BLI; Nb on LRRK2 trapped on streptavidin sensor via biotinylated Nb42; steady-state fit
Protocol: as §3, §4

[12] = biological target: T1, Full-length human Leucine-rich repeat …; assay: MST; LRRK2 titrated to m-TAMRA-labelled Nb, in presence of GTPγS instead of GDP; MST in presence of GTPγS instead of GDP
Protocol: as §1

[13] = biological target: T1, Full-length human Leucine-rich repeat …; assay: ELISA titration on coated LRRK2, Nb detected via its C-terminal EPEA tag, A405 read at 10 h
Protocol: as §5, §6

IC50 of in vitro LRRK2 kinase activity (AQT0615 peptide, PhosphoSens, 1 mM ATP) [1]: 14000 nM | Kd [2]: 83 nM | binding result [3]: no binding (tested: not given) | binding result [4]: no binding (tested: not given) | Kd [5]: 7 nM | EC50 (read off the curve) [6]: ~5 nM | Ki [7]: 8000 nM | Ki [8]: 5000 nM
B1: Nb6 (CA12618) (VHH)
VHH: QVQLVESGGGLVQAGGSLRLSCAASGSIFSPTAMGWYRQAPGKERELVAGITSGGYTNYRNFARGRFTISRDNAKKTVYLQMNSLNPEDTAVYYCNTLTISWSWGQGTQVTVSS

Kd [2]: 26 nM | binding result [9]: no binding (tested: not given) | binding result [3]: no binding (tested: not given) | binding result [10]: no binding (tested: not given) | Kd [11]: 41 nM
B2: Nb40 (CA14135) (VHH)
VHH: QVQLVESGGGLVQPGGSLRLSCVASGTIYAINRMGWYRQAPGKQRELVALITLGGGTNYGDSVKGRFTISRDNAKNTGYLQMNSLKPEDTAVYYCKVESSGYTDVFWGQGTQVTVSS
notes: biotinylated form used as trapping agent in BLI

binding result [9]: no binding (tested: not given) | binding result [10]: no binding (tested: not given) | binding result [4]: no binding (tested: not given) | Kd [5]: 82 nM | Kd [12]: 94 nM
B3: Nb42 (CA14259) (VHH)
VHH: QVQLVESGGGLVQAGGSLRLSCAASGDVNYAVGWFRQAPRKEREFVAAINWRGDNTDYTDSVKGRFTISRDNAKNTVYLQMNSLKPEDTAVYYCAAKSAPYWYSDIAPDYWGQGTQVTVSS
notes: biotinylated form used as trapping agent in BLI of Nb40

IC50 of in vitro LRRK2 kinase activity (AQT0615 peptide, PhosphoSens, 1 mM ATP) [1]: 8000 nM | Kd [2]: 91 nM | binding result [3]: no binding (tested: not given) | binding result [4]: no binding (tested: not given) | Kd [5]: 114 nM | EC50 (read off the curve) [13]: ~10 nM | Ki [7]: 30000 nM | Ki [8]: 16000 nM
B4: Nb1 (CA12610) (VHH)
VHH: QVQLVESGGGLVQAGGSLRLSCVASGRIFSGNAMGWYRQAPGRQRELVAGITNGGYTNYRQFVKGRFTISRDNAKRTVYLQMNSLKPEDTAVYYCNALDREARQVDYWGQGTQVTVSS
